{"source": "paper PMC6856128", "about": "(Scientific Reports, 2019)", "tested_on": "O=S(O)(O)=S", "test": "purified protein", "details": "pH 8.0; 37.0 °C"}
{"substance": "CysA2 (Mycobacterium tuberculosis H37Rv)", "values": [{"measurement": "Km", "value": "2.97 ± 0.05", "unit": "mM"}]}
